We go through 18 molecules from patent publication US20240409645A1 (DUALYX, published 2024).

Experiment [1] addresses T1, human interleukin-2 receptor β-chain (IL-2Rβ; CD122), recombinant protein (human, UniProt P14784 27-240).
T1 construct: also called human IL-2R subunit CD122
T1 sequence: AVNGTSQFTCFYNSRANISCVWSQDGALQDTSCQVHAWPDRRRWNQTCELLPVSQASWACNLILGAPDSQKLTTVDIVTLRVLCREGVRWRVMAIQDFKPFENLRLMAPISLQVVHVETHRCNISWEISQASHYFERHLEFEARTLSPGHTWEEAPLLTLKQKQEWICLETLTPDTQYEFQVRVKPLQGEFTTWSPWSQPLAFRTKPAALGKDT
The experiment in a line: ELISA, bivalent VHH-hFc. As to the method: (§1) Monospecific monovalent and bivalent IL-2Rα-, IL-2Rβ- and IL-2Rγ-specific antibodies that were selected on human IL-2R subunits, were evaluated for their cross-reactivity in an ELISA. Human and cynomolgus monkey receptor subunits (Acrobiosystems, KactusBiosystems) were coated at 1 μg/mL in PBS (pH 7.4) in a Maxisorp plate (Nunc) and incubated overnight at 4° C. The plates were further washed with PBS-Tween pH 7.4 and incubated with 1% cascin/PBS-Tween blocking solution for 1 hour shaking at 400 rpm. Subsequently, the plate was washed three times with PBS-Tween pH 7.4, after which the test antibodies diluted in 0.1% casein/PBS-Tween were added to the plate and incubated for 1 hour. The plate was again washed three times, after which goat anti-human IgG Fc (HRP) detection antibody (abcam) was added to the plate and incubated for 30 min. The colouring reaction was performed with TMB (Sigma-Aldrich) and stopped with 0.5N H₂SO₄.
(§2) Absorbance was measured at 450 nm with the reference wavelength of 620 nm using spectrophotometer. Final analysis and graphic output were performed with GraphPad Prism version 8 (GraphPad Software). The dose-response binding curves were fit to a nonlinear regression model (log (agonist) vs. response with a variable slope (four parameters)).
A general note: In an ELISA, binding on a coated surface is turned into a signal by an enzyme label.

Experiment [2] deals with T2, cynomolgus monkey IL-2Rβ/CD122 subunit (cynomolgus monkey, UniProt Q38J85 27-239, limits assumed).
T2 construct: also called Cyno IL-2R subunit
T2 sequence (looked up): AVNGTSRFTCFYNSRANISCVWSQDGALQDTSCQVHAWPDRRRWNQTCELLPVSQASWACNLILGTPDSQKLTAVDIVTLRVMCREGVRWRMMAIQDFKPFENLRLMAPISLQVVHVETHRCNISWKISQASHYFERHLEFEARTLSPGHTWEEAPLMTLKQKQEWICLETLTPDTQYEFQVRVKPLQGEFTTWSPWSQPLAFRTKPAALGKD
The experiment in a line: ELISA, bivalent VHH-hFc. The method, then:
as §1, §2

Experiment [3] deals with T2, cynomolgus monkey IL-2Rβ/CD122 subunit. The experiment in a line: ELISA, bivalent; EC50 cyno vs human subunit. As to the method: as §1, §2
For experiment [4], the target named is T3, human interleukin-2 receptor α-chain (IL-2Rα; CD25), recombinant protein (human, UniProt P01589 22-240, limits assumed).
T3 construct: also called huIL2R-a; hIL-2RA
T3 sequence: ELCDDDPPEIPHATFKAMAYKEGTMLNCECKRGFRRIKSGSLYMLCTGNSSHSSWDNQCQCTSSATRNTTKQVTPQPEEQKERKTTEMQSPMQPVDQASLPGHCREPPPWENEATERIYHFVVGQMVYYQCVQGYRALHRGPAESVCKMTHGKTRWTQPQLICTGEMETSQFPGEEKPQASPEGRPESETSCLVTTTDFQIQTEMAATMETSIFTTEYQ
The experiment in a line: ELISA, bivalent VHH-hFc. The method, then:
as §1, §2

Experiment [5] addresses T4, cynomolgus monkey IL-2Rα/CD25 subunit (cynomolgus monkey, UniProt H6WS54 22-213).
T4 construct: also called Cyno IL-2R subunit
T4 sequence: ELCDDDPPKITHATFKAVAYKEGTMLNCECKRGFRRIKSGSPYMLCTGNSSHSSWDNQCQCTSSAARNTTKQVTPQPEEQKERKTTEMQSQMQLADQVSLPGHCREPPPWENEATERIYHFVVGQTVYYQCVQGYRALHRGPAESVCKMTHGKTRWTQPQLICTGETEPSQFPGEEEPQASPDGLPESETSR
Nature of the experiment: ELISA, bivalent VHH-hFc. The method, then:
as §1, §2

Experiment [6] deals with T4, cynomolgus monkey IL-2Rα/CD25 subunit. Nature of the experiment: ELISA, bivalent; EC50 cyno vs human subunit. As to the method: as §1, §2

What is called EC50 is the concentration giving half of the maximal effect.

B1: 166-MP02H08 VHH-hFc, monospecific bivalent (Fc fusion)
chain: EVQLVESGGGLVQAGDSLRISCAASGRIFSNYAMGWFRQAPGKETEFVAGITHLTSTTHYADSVKGRFTISRDNAKNTMHLQMNNLKPEDTALYYCAADRNIKITADWSYWGQGTQVTVAS
notes: IgG1 Fc LALA-PG; not shown: human IgG1 CH2 and CH3 domains (Fc)
In the case of B1, the figures for the EC50 in experiment [1] and in experiment [2] were 0.085 nM and 0.105 nM, respectively. In experiment [3], this molecule yielded a Fold change of 1.2 fold.

B2: 193-MP02F12 VHH-hFc, monospecific bivalent (Fc fusion)
chain: QLQLVESGGGLVQTGTSLRLSCAASGHTSRINAMGWFRQFPGKEREFVAAISRNGGSTVYVDSVKGRFTISRDNAKSTVYLQMNSLKPEDTAVYYCTATDAVGWTTRWMTADFGFWGQGTQVTVSS
notes: as for B1
Consider B2, for which the EC50 in experiment [1] came to 0.087 nM; in experiment [2], 0.099 nM. The same molecule had a Fold change in experiment [3] of 1.1 fold.

B3: 22-MP03F12 VHH-hFc, monospecific bivalent (Fc fusion)
chain: EVQLVESGGGLVQAGGSLRLSCAASGSIFSINAMAWFRQVPGMERELVAAISRDGGASVYRDSVKGRFTISRDNSKNTVYLQMNTLKPEDTAIYVCAATRAIGWTARWITTDFDFWGQGTQVTVSS
notes: as for B1
On to B3, for which the concentration for a half-maximal effect (EC50) in experiment [1] turned out to be 0.124 nM; in experiment [2], 0.122 nM. The same molecule returned a Fold change in experiment [3] of 1 fold.

B4: 115-MP02E01 VHH-hFc, monospecific bivalent (Fc fusion)
chain: EVQLVESGGGLVQIGGSLRLSCAASGRTFSSITMAYFRQVPGKEREWVAGINFSGTRTFYADSVKGRFLISRDDAKSTMYLQMNSLKPEDTAVYYCAASPRGFYGPGNALYDYWGQGTQVTVSS
notes: as for B1
Turning to B4, the EC50 in experiment [1] and in experiment [2] was 0.06 nM throughout. In experiment [3], this molecule registered a Fold change of 1 fold.

B5: 23-MP06F03 VHH-hFc, monospecific bivalent (Fc fusion)
chain: QVQLVESGGGLVQAGGSLRLSCAVSGDVFVRYTMAWFRQAPGKEREFVASVTDSGRTTDYVHSVKGRFTVSRDNAKNTVYLQMNNLKPEDTAVYYCAANTDYFQIKSLDANTWGQGTQVTVSS
notes: as for B1
B5: the EC50 was found to be 0.125 nM in experiment [1] and 0.157 nM in experiment [2]. For the same molecule, in experiment [3], the Fold change is 1.3 fold.

B6: 26-MP06A07 VHH-hFc, monospecific bivalent (Fc fusion)
chain: QVQLQESGGGLVQAGGSLRLSCAASGDVFVRYTMAWFRQAPGKEREFVASVTDSGRTTEYVDSVKGRFTVSRDNAKNTAYLQMNNLKPEDTAIYYCAANTDYFQIRSLDLNTWGQGTQVTVSS
notes: as for B1
As for B6, the figures for the EC50 in experiment [1] and in experiment [2] were 0.117 nM and 0.138 nM, respectively. Besides, in experiment [3], the Fold change is 1.2 fold.

B7: 168-MP02B09 VHH-hFc, monospecific bivalent (Fc fusion)
chain: EVQLVESGGGLVQAGGSLRLSCAASGRTFSTTEMGWFRQAPGKEREFVAAITWTGRGTMYAESVEGRFTISRENAKNMVYLQMNSLKPEDTAIYYCAAARRGRAAVRSEGGYDFWGQGTQVTVSS
notes: as for B1
On to B7, for which the concentration for a half-maximal effect (EC50) is 0.053 nM in experiment [1] and 0.127 nM in experiment [2]. Further, in experiment [3], the Fold change is 2.4 fold.

B8: 2-MP01A02 VHH-hFc, monospecific bivalent (Fc fusion)
chain: QVQLVESGGGLVQPGGSLRLSCATSGFTFRNNFMSWVRQAPGKGLEWVSTISYGGESTTYAESVKGRFTISRDNAKNTLYLQMNNLKPEDTAVYYCAKATSYDSIRSGSRGQGTQVTVSS
notes: IgG1 Fc LALA-PG; also called anti-IL-2Rα Ab 2; not shown: human IgG1 CH2 and CH3 domains (Fc)
On to B8, for which the EC50 in experiment [4] was determined as 0.038 nM; in experiment [5] it was 0.043 nM. The Fold change in experiment [6] stood at 1.1 fold.

B9: 8-MP01C12 VHH-hFc, monospecific bivalent (Fc fusion)
chain: QVQLVESGGGLVQPGGSLRLSCATSGFTFSNNFMSWVRQAPGKGLEFVSTISYGGESTTYAEAVKGRFTISRDNAKNTLYLQMNNLKPEDTAIYYCAKATSYTSIRGAPRGQGTQVTVSS
notes: IgG1 Fc LALA-PG; also called anti-IL-2Rα Ab 8; anti-IL-2Rα VHH 8; not shown: human IgG1 CH2 and CH3 domains (Fc)
Regarding B9, the EC50 in experiment [4] amounted to 0.051 nM; in experiment [5], 0.054 nM. In experiment [6], this molecule came in with a Fold change of 1.1 fold.

B10: 161-MP02C08 VHH-hFc, monospecific bivalent (Fc fusion)
chain: EVQLVESGGGLVQAGGSLRLSCAASGSTFSRQPMYWFRQAPGKEREFVAAITWSGRGTLYADSVEGRFTISRDNAKNTVYLQMNSLRPDDTAAYYCAAGPYGDAAYRHGRIDSWGQGTQVTVSS
notes: as for B1
Take B10: the EC50 was 0.084 nM in experiment [1] and 0.157 nM in experiment [2]. The same molecule yielded a Fold change in experiment [3] of 1.9 fold.

B11: 1-MP01H01 VHH-hFc, monospecific bivalent (Fc fusion)
chain: EVQLVESGGGLVQAGGSLRLSCAASGRTFRTHNMGWFRRAPGKEREFVAAISWNVDNTLYADSVKGRFTISRDNGRNMVYLQMNSLKPEDTAVYYCAADNIPLSSDVAATATEYDYWGQGTQVTVSS
notes: as for B1
Consider B11, for which the values for the EC50 in experiment [4] and in experiment [5] were 0.052 nM and 0.061 nM, respectively. Moreover, the Fold change in experiment [6] was 1.2 fold.

B12: 4-MP01F04 VHH-hFc, monospecific bivalent (Fc fusion)
chain: QVQLVESGGGLVQAGGSLRLSCAASGGTFRTRNMGWFRRAPGKEREFVAAVSWNVDNKLYADSVKGRFTISRDNGRNMVYLQMNSLKPEDTAVYYCAADNIPLSSDMRPTATEYDYWGQGTQVTVSS
notes: as for B1
As to B12, the values for the EC50 in experiment [4] and in experiment [5] were 0.053 nM and 0.056 nM, respectively. In experiment [6], this molecule showed a Fold change of 1.1 fold.

B13: 184-MP02E11 VHH-hFc, monospecific bivalent (Fc fusion)
chain: QVQLQESGGGLVQAGGSLRLSCAASGRTFSNYVMAWFRQAPGKEREFVGAITQTGRGTFYADSVEGRFTISRINDKNTVYLQMNSLKPEDTAVYYCSAPRSGRAGTRNQMDYEYWGQGTQVTVSS
notes: as for B1
B13: the EC50 in experiment [1] is 0.059 nM; in experiment [2] it was 0.074 nM. Further, the Fold change in experiment [3] is 1.3 fold.

B14: 92-MP05C07 VHH-hFc, monospecific bivalent (Fc fusion)
chain: QVQLVESGGGSVQAGGSLRLSCEASGRTLFSSYGMGWFRQAPGKEREFVGAISRFGTYTSYADPVKDRFTISRDNAKSTVYLQMNNTKPEDTAVYYCAAYTYSGSFYSTVKTHHDEYRYWGQGTQVTVSS
notes: as for B1
For the molecule B14, the EC50 in experiment [4] came to 0.047 nM. Besides, in experiment [5], the binding result was “no binding”.

B15: 189-MP02B12 VHH-hFc, monospecific bivalent (Fc fusion)
chain: QVQLVESGGGLVQAGGSLRLSCAASGRADSNAIMAWFRQAPGKEREFIVAVTYSGMPTYQDDSVQGRFTASRDNAKNTVYLQMNSLKPEDTAVYYCAARMYSASTYYGDYDYWGQGTQVTVSS
notes: as for B1
As for B15, the EC50 turned out to be 0.053 nM in experiment [1] and 0.066 nM in experiment [2]. In addition, in experiment [3], the Fold change worked out at 1.3 fold.

B16: 297-MP06A08 VHH-hFc, monospecific bivalent (Fc fusion)
chain: EVQLVESGGGLVQAGESLRLSCAASGQYFSTYSMAWFRRTPGKEREFVTIISESGGIKEYVDSVKGRFTVSRDNAKNTVYLQMNSLKPEDTAVYYCAAARDWFARNEYQYDYWGQGTQVTVSS
notes: as for B1
As for B16, the EC50 in experiment [1] amounted to 0.079 nM; in experiment [2], 0.09 nM. For the same molecule, the Fold change in experiment [3] was determined as 1.2 fold.

B17: 24-MP06E05 VHH-hFc, monospecific bivalent (Fc fusion)
chain: QVQLVESGGELVQGGASLRLSCAASGRTFSNANMAWFRQAPEKEREFVALITWSSGSTLYADSVKGRFTISRDNARKMVYLQMNSLKPEDTAVYYCAADGPPYSGTYYRYDTYDYWGQGTQVTVSS
notes: as for B1
For the molecule B17, the EC50 was determined as 0.191 nM in experiment [1] and 0.265 nM in experiment [2]. This molecule also yielded a Fold change in experiment [3] of 1.4 fold.

B18: 126-MP02A03 VHH-hFc, monospecific bivalent (Fc fusion)
chain: QVQLVESGGGLVQPGGSLRLSCAASGFTFSNYAMSWVRQAPGKGLEWVSSITGAGRGTYYAESVKGRFTISRDNDKNTLYLQMNSLKPEDTAVYYCAKYDSSTFYPPTPARGIADRGQGTRVTVSS
notes: as for B1
For B18, the EC50 in experiment [1] came to 0.09 nM; in experiment [2] it was 0.065 nM. The Fold change in experiment [3] was 0.7 fold.
